# Test results as given in the domain aggregation screens of Martell et al. (2025).
# Assay: soluble fraction after stress (log2 fold change); higher = more stays soluble; pooled small domains, quantitative proteomics
# Conditions: stress: pH 4
# Outline: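 Values are on a log2 scale, where higher means more of the domain stayed soluble after pH 4 stress. They are fold changes in the soluble amount of each domain from pooled custom libraries, measured by high-throughput quantitative proteomics. The fold change is taken to reflect aggregation propensity.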
row,Sequence,soluble fraction (log2)
1,HMRSIVETLTDRELEIFQLIGNGFSTGEIARRLNLSPHTIETHRKNIKDKLGLSSGSELNKQAIQWVLSS,-1.15
2,HMRSKTSYAVWTPIQIDAGSQMQALQSKGFNTVLMEGGISVGIRSDKAQAQALLNRLQGAGFTGQLREVN,0.259
3,HMRSLATFEEEKIALRFWNYLQSEGIKSTLEEEGPRDWVIWVIDEEKIPSATQSLEKFNLNPDDPAFSN,-0.137
4,HMRSLVDRSVQAVTDHIRENALRVGDSLPGEAYFATSLGVSRAVMREAFGALAALRVIDVGNGRKPRVGAI,-0.438
5,HMRSMEKRLTAKVKRVQEGVQAKSQAGEQPFEVVKLMQRFPKLMQFGKHAEAETVLDKALELLGEE,-0.373
6,HMRSQLALVVRTGESQRLDNFLVNNLAWKSRNRLQGLIREGLVTVNGEKTKASRRVHLDDLVEIHL,-0.0501
7,HMRSTIYEFTVPPGQLESIRLDVYITSFVENATRSKVQEAIKQGYVWVNGKHEKASYTMLPGDKIYIELPI,-0.497
8,HMRSVEVAAEPGMVLEDRQTGFVGAVVAVEKSGGTHLVVLEDRHGLRRGFPLGPGFWLEGRPVVLAPPP,-0.141
9,HMRTANREKRIEASVKMMKAGYPVGYIIARVFMYEGWEEDYRQLLIYLSEKIPKDVSNPITFEVIS,-0.317
10,HMRTEGNLGAKVRVLRRSQGMTQAELARRLGISPSYLNLIEHNRRSFTADLLVKLAKILPVNLKT,0.04
11,HMRTITYSITPAHAGMSVERYLKQQHGYSTRTLVKLKHYPQGLQLNGQHARTVDLLQAGDTLAVTFLD,0.145
12,HMRTLSAGVAGRLRADILNGLLEPGRRLGMAELTERYGAGMSPVREALSRLVGEGLVQSEGQRGFRVA,0.199
13,HMRTMFGQRLRLARKRAGLSMQALADRVTPSVSAQAISKYEADQMMPSSSVLVGLGKALGVSLDFLVGGQ,-0.238
14,HMRTNVDISPKILEWVLSQVRNRTTNDVIETIQIWIKGEKPPTFNQVEKISKATGVPLGYFFLKTPPVED,-0.684
15,HMRTPLTGREEQVATLIGRGMTNSEIAESLSVDESTVKTHIGSILRKVHLRDRLQVALWFHGLPIE,-0.354
16,HMRTTYKTRLETLLAGPMSAGDRRFASSLLDFYNRKNRLTPGRARFVAQLEDRYSAEALAARQG,-0.00949
17,HMRTVEQFQIRKIYAISNALGISDSRADEDELHVLVSGLTGKDSIKELTYREASVVIERLEELQ,-0.62
18,HMRVDDITDTILNVLKEQGGFISVTDKSSPETINKLFGVSKKTYKKAIGAIYRKKLIIIEDDGIRLNS,-0.219
19,HMRVDRSALDSIPGVGPGRKRTLLHHFGSARAVEASGLADLESIRGISKALARKIYDFFHPE,0.161
20,HMRVELVVVPELRQQLLPEARELANSAGLQLRVRGQSPADETRTIVVTQSPAAGTRVAARSIVLVE,0.338
21,HMRVPTVIGMDEGTAKATLANASLKSNIVYESDETKENGKVLSQGIEQNKEVKAGTTVEIKVNKIE,0.22
22,HMRVTEVSYDKFLDMLSGGQVTVVELQENERELYFKAADENGAERIYSTGVFPDADLQKRLSESGVTF,-1.19
23,HMRYLHTMIRVSDLEESLNFFKLLDIHEVSRKENEQARFTLVFLSATGDEKLVENAKSPLIELTFN,-0.471

row,Sequence,soluble fraction (log2)
1,HMRYLMPDLVNRRYEPVRSLLEARGIRFGNVIFEPYEGLPPGIVLRQDPPAGHPLPRRRTVSLVVSGPGGR,0.109
2,HMRYQIAEARKLRDITQAELAEKMGTTQQTIQRYETNQVNIRMDKMIEMSEILNVSLAYLLGMSSSPEL,0.122
3,HMRYVVQVATFSSKNNAIRAADDLAGFVVVSNGYYRVRTGPYADRGEANAALAKARKAGYTDAFVDTS,0.0704
4,HMSAAYVYVTGTRVNQRDGPSTFDRVMGVLVEGTRVQLLRDQGQWAQIRSDLGTGWLSSGFLSRNG,0.0158
5,HMSADKAEAAEASLKSFNLRLQAAAMEAGKTFAPVTADQYAEYKAAWGTYIRKGIEGLSESEKKTINVG,-0.167
6,HMSAETREELVGREGVSLTDLRPSGFALFGQEKIDVVSESEFIEEGTSVRIVSVEGSRHIVRAKR,-1.24
7,HMSAISSARKEKIIEYLTDHGSARSSEIAEYVDLRPSRVRDYLGELVREDIVVAEGANRNRTYRLK,0.409
8,HMSAPGYRAVYPGMLESERQTAYELLSSSGFDVKINTSSGELEVTTDRYHEARMVMASQNIPK,-1.18
9,HMSAPVFRITPAGVVVNGLKRSDILTLTRIDGAMNTLPHNAGEVLVSTEGLAKGVYVITAGGKSLKFLV,0.00157
10,HMSAQPMEYSRFYSDVTQGRVAEVEIEGREINGRLSTGERFKTFSPETDNKALIGHLLDNGVVIEGKPP,0.0726
11,HMSASEKLFEARKNLNIVNVLGKNPVDRYDIVKILKHGDHYHIYDSKGNEGITYTNPKSLYPEAEFGEYQG,-0.228
12,HMSASTGTVSYKSGATTVWNSPSWHQVKRYVTFGDTVQLLGKTVDQNGATWYKVGDNQWIPELYLNVAG,-0.486
13,HMSATEPVHFDPNKSPEDMTVEELQAGILAKMANNGPVSDQMKKTVNENIWHDSLVNWLKSF,-0.0828
14,HMSATPQRMSIINELDSARKNLSAYDLRDSLKDKGHSFNISTIYRVLSFWIDVGVVHKMDSSNTYL,-0.315
15,HMSATVLVHVLGEVRKPGVVSLPEGSRVQDAITAAGGLTSRAKPGDLNLAARVSDGAQLVIGRSGSQVRTT,0.103
16,HMSAVVAPLPGLIQNILVKVGDTVHAGQHVLTMEAMKMENEIQTNRDGIIKDIKVRIGDSVNEGDTLIIL,-0.311
17,HMSDAGAIEPTIKEILASNPKAVEEYLAGNIKNINALIGQSMKALHGKADPQTVRNLLAKLLDEM,-0.487
18,HMSDAIQLEQKIGLEAIEWYLALSEQTDDKLLYQQWQSWLAADPQHQLAWSRIEQVNHGLNTL,-0.9
19,HMSDAVQLGLRLRAARERRGLSQQAVADALGLPRTAVTNMESGNRAVSTLELTKLAALYGQSTAFFLSP,0.291
20,HMSDDVELLGRLSDREVSVLQYLSQGYSNKQISEQMFISNKTVSTYKARLLLKLNAGSLVDLIEFAKRNTL,-0.961
21,HMSDEINYVIQINGKNRAEAEFGANLDKESIENLALEHERIKELLNGLTVRKIIVVPKKLVNIVA,0.178
22,HMSDESALLELVKQIIADNPKAVEEIRAGKEKAMGFLIGQAMKASRGSANPQIISRLVREQLG,0.0495
23,HMSDFDPTLILDLIKGSGEALTKREIARALGIKGGDKRIELKSHLKSMEAEGVIVKQAGGAYSVP,-0.00302

row,Sequence,soluble fraction (log2)
1,HMSDFSNLNLLELNSSELDLLLRRASSQGLTQMDLLKMARSQGLSEADLIKVKGKIDTSESIKR,-0.0416
2,HMSDFSSNLRRLRKRAGLSQDALAEKLSVARQTVSSWERGNSYPDLDMLVRISDALATDPNELLYPN,0.0655
3,HMSDGDFLQKIAEEILAQFPDKVKEYQKGKKGLIGFFMGELMKRSKGKADPKVATRILEEILSEKNGSS,-0.609
4,HMSDGTVYGSDGVIKVNLPQSGMLRIYATDGTTLVNRWQAAGIDTISMPRGLYIVRFDNQVWKVVV,0.00982
5,HMSDHSSLAGKEGVAVTPLRPAGTAEIDGKRMDVVTMGDYIKAGDHIKVVKVEGNRIIVAKN,-0.0102
6,HMSDHYEVLGVDRNATDDQIKKAYRRLARELHPDVNDAPESQEKFKLVTHAYEVLSDPDERRKYDMG,0.056
7,HMSDIYSLFERELGRTLSSYEYEIIGKWIEKGVSEDTIKRALKEAILNGVTNFKYIDKIIYDWSKN,-1.05
8,HMSDLFKYSPYKTLTEEQYKITYQIIERLKTDLSNGIPRISIIDGGAGTGKSILGIFLLKLLVDAQN,0.321
9,HMSDNLSASERKALSHMEGMESVRSSEVADLLGMSQRGAQKLLNRLVDKGLASSFGANRNRRYSVE,0.111
10,HMSDNLTIVRAVYSGLSQRQAAATYHVSRNTVSLLLRHARNRGWLTLEDLAQLDNAAFSKSL,0.354
11,HMSDPFSPTTTLKNRAKSVLSVDSFEDFKLFIKKMWQEKKEGVYQNPNVETWKDWDNISVKDAKILISLI,-0.327
12,HMSDPHEELMSRIARDLSIPLTRVVAEMNTIISKEFGGHIRPEGAVVILAKRSGVEFSDLLPALRENILK,-0.852
13,HMSDQIQQIAERIAGLRDIAGYSVEELARELGISAEEYKRYESGEVDIPIGFLYKLANKYNVELTAILT,-1.02
14,HMSDRFLDQEGVALSTLRPSGTVVLDSGEHLDVVTRGEFIEQGERVKVIKAESTWYVVEQIN,-0.317
15,HMSDRLRLGRRIRAARLEQNLSQAALAERLGISASYLNLLEHDRRSLTTVLLLKLAQVLGLELRDLAAG,0.0304
16,HMSDRLRPGDMVVVVGKKKRYPVFSAFDIDFVEAGDVGKVLTVKREEVVVGFPKKGEGTFTPSELNIAH,0.00331
17,HMSDTGQELHDALNMARRTLTILEEQAAGYTALTIPARLVLELEEKRKDVVRLETQIRSAATGTPG,0.00666
18,HMSDTLPRLLWNFQMAKRLDEMNGAEKRRYQLVLIHPQASEKERDYASSFAHQARMLGIEVAIRDS,-0.139
19,HMSDVVFRINANGLNVSGLANGERVSVYDTTGKLVTTAVSTQDNGTLNLPLKQSGGIYIARTQSGVSFKFT,0.108
20,HMSDYKSYLQELVQTDKKSLSYNVVKETGPAHDKTFEVEVEVDGIIYAHGVGKSKKEAEQNAAKNAIMISA,-0.24
21,HMSDYLGSLSHEEKMIFNHFDEDSSTIENMAKKTELKPELISQIFLNLELRGFLRQTEGGLYEKI,-1.13
22,HMSDYYEVLGVTRQADAEEIKRAYRRKARQLHPDVAGPGHEEEFKEVTVAYEVLSDPEKRQAYDLGGQDAL,0.0614
23,HMSEDAVKFRAAVEVENGLAQRNLNKNQAALILGVDRSYFTYIISGKKTPSPDMAKRIGLLLGFDWRVFYA,-0.324
